From IntAct's records for PubMed 11375976 come the findings set out here.

The target in this test is TERF1, P54274-2.
TERF1, P54274-2, sequence (P54274 other isoform, or with tags, fused parts or gaps): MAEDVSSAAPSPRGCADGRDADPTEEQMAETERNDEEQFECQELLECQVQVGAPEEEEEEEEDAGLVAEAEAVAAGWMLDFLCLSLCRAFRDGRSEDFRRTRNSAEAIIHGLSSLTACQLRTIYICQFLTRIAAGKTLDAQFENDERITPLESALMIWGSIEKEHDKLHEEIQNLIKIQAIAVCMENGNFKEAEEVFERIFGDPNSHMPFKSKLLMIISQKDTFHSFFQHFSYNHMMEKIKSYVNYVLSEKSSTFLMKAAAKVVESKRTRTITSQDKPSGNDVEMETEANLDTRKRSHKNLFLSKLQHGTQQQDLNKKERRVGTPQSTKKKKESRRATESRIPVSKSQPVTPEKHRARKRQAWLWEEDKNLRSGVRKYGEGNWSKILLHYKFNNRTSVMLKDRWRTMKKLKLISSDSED

As to “Serine-protein kinase ATM (Homo sapiens), Q13315 D2870A;N2875K”, the “effect of a mutation on the interaction” value is “disrupting interaction”.
